The values that follow come from US20200138870A1, “RECREATION OF PANCREATIC NICHE ALLOWS FOR NOVEL METHODS FOR HUMAN, MATURE BETA DERIVATION FROM PLURIPOTENT STEM CELLS” (Baylor College of Medicine, priority 2016, published 2020).

This assay deals with hESC-derived EPs. Nature of the assay: Growth factor treatment of hESC-derived EPs for 3 days, immunofluorescence quantification of marker-positive cells. Type of assay: cell-based, human. The conditions noted are these: for increase in number of ISL1+ cells: high concentration treatment; for INS+ cell numbers (in words): two concentrations. Here is the method:
hESC, ISL1-EGFP Hues8 and H1, were maintained under a feeder-free system on Geltrex (Invitrogen) in TeSR-E8 media (Stemcell Technologies). Cells were passaged at 70-80% confluence using TrypLE (Invitrogen). After dissociation, cells were seeded in TeSR-E8 media+10 μM Y-27632 for 24h. Differentiation was started when cells were 90% confluent. The following media and growth factors/small molecules (see also Table 3) were used: Day1: MCDB-131 media with 0.1% BSA+10 mM glucose+ActivinA and CHIR99021. Day2-3: MCDB-131 media+0.1% BSA+10 mM glucose+ActivinA. Day4-5: MCDB-131+0.1% BSA, 10 mM glucose, VitC+KGF. Day6-9: MCDB-131 2% BSA+5.5 mM glucose+Vit.C+ITS (Invitrogen)+ActivinA+KGF+RA+SANT-1+Noggin. Day10-12: MCDB-131+2% BSA+5.5 mM glucose+VitC+ITS+SANT-1+Noggin+PdBU. Day13-15: MCDB-131+2% BSA+5.5 mM glucose+VitC+ITS+Noggin+AlK5i. EPs were dissociated and seeded as 25,000 cells/well on Geltrex-coated 96-well plates in DMEM media (Invitrogen) with B27 Supplement (Thermo Fisher Scientific), later called B27 media, supplemented with 10 µM Y-27632 for 24h. Growth factors (Table 3) were added to B27 media, at two concentrations, and tested on EPs for 3 days. After 3 days, cells were PBS washed, fixed with 4% PFA/PBS for 20 min at room temperature (RT), washed twice with PBS and stained.
Cells were incubated with 5% donkey serum (Jackson ImmunoResearch Laboratories) in PBST (PBS+0.1% Triton-X) for 30 min to avoid nonspecific binding of the antibody and to permeabilize the cells. Primary antibodies, diluted in 5% donkey serum in PBST, were then added and incubated at 4° C. overnight with shaking. After primary antibody incubation, cells were washed 3 times with PBST and secondary antibodies conjugated with Alexa-Fluor Dyes (Jackson ImmunoResearch Laboratories) and diluted in 5% donkey serum in PBST were added to the cells for 30 min at RT. Then, cells were thrice washed with PBST and nuclei were stained with Dapi (Roche Diagnostics). For imaging, Leica DMI6000 or confocal Leica TCS SPE was used. Images were initially processed by LAS X software and then further analyzed and quantified using ImageJ software (NIH, W Rasband, http://rsb.info.nih.gov/ij) using cell counter plug-in. Typically, at least 5 randomly selected images were counted per condition.

Where [1] appears, read: 200 ng/ml Gremlin1, 3 days, vs untreated.

Regarding “HGF: growth factor (R&D), 50 or 100 ng/ml”, the “effect on the number of CHGA+ and INS+ cells (in words)” value (shortened to “effect on the number”) (3 days treatment of EPs) is listed as “little or no effect”. The “increase in number of ISL1+ cells” value (3 days) was around 2 fold.

In the case of “THBS2: growth factor (R&D), 5 or 1 μg/ml”, the “effect on the number” value (3 days treatment of EPs) is “little or no effect”. Moreover, for the setting “3 days”, the “increase in number of ISL1+ cells” value is around 2 fold.

On to “IGF: growth factor (R&D), 10 or 50 ng/ml”, for which, under “3 days treatment of EPs”, the “effect on the number” value is listed as “little or no effect”. Moreover, where the note is “3 days”, the “increase in number of ISL1+ cells” value is recorded as around 2 fold.

B1: SERPINF1: niche-derived secreted factor (R&D), 500 ng/ml or 1 μg/ml (protein, UniProt P36955 20-418, looked up)
Pigment epithelium-derived …: QNPASPPEEGSPDPDSTGALVEEEDPFFKVPVNKLAAAVSNFGYDLYRVRSSTSPTTNVLLSPLSVATALSALSLGAEQRTESIIHRALYYDLISSPDIHGTYKELLDTVTAPQKNLKSASRIVFEKKLRIKSSFVAPLEKSYGTRPRVLTGNPRLDLQEINNWVQAQMKGKLARSTKEIPDEISILLLGVAHFKGQWVTKFDSRKTSLEDFYLDEERTVRVPMMSDPKAVLRYGLDSDLSCKIAQLPLTGSMSIIFFLPLKVTQNLTLIEESLTSEFIHDIDRELKTVQAVLTVPKLKLSYEGEVTKSLQEMKLQSLFDSPDFSKITGKPIKLTQVEHRAGFEWNEDGAGTTPSPGLQPAHLTFPLDYHLNQPFIFVLRDTDTGALLFIGKILDPRGP
In the case of B1, where the note is “3 days treatment of EPs”, the “numbers of ISL1-eGFP, CHGA+, INS+ and C-peptide+ cells over untreated controls (in words)” value (“numbers … over untreated controls (in words)” below) is reported as “increased”.

B2: PDPN: podoplanin, a mucin-type transmembrane glycoprotein (protein, UniProt Q86YL7 23-162, looked up)
Podoplanin: ASTGQPEDDTETTGLEGGVAMPGAEDDVVTPGTSEDRYKSGLTTLVATSVNSVTGIRIEDLPTSESTVHAQEQSPSATASNVATSHSTEKVDGDTQTTVEKDGLSTVTLVGIIVGVLLAIGFIGAIIVVVMRKMSGRYSP
B2: the “numbers … over untreated controls (in words)” value (3 days treatment of EPs) is “increased”. For the setting “high concentration, 3 days”, the “increase in number of CHGA+ cells” value came out at 3 fold and the “increase in number of INS+ cells” value is recorded as 3 fold.

B3: WNT5B: a WNT5A paralog (protein, UniProt Q9H1J7 18-359, looked up)
Protein Wnt-5b: QLLTDANSWWSLALNPVQRPEMFIIGAQPVCSQLPGLSPGQRKLCQLYQEHMAYIGEGAKTGIKECQHQFRQRRWNCSTADNASVFGRVMQIGSRETAFTHAVSAAGVVNAISRACREGELSTCGCSRTARPKDLPRDWLWGGCGDNVEYGYRFAKEFVDAREREKNFAKGSEEQGRVLMNLQNNEAGRRAVYKMADVACKCHGVSGSCSLKTCWLQLAEFRKVGDRLKEKYDSAAAMRVTRKGRLELVNSRFTQPTPEDLVYVDPSPDYCLRNESTGSLGTQGRLCNKTSEGMDGCELMCCGRGYNQFKSVQVERCHCKFHWCCFVRCKKCTEIVDQYICK
Take B3: the “INS+ cell numbers (in words)” value (3 days treatment of EPs) was “increased INS+ cell numbers in a dose-dependent manner”.

B4: Gremlin1: a BMP antagonist upregulated in Wk17.5h and 20.1 M-E primary cells (protein, UniProt O60565 25-184, looked up)
Gremlin-1: KKKGSQGAIPPPDKAQHNDSEQTQSPQQPGSRNRGRGQGRGTAMPGEEVLESSQEALHVTERKYLKRDWCKTQPLKQTIHEEGCNSRTIINRFCYGQCNSFYIPRHIRKEEGSFQSCSFCKPKKFTTMMVTLNCPELQPPTKKKRVTRVKQCRCISIDLD
For the molecule B4, under setting [1], the “increase in CHGA+ cell numbers” value stood at 5 fold and the “increase in INS+ cell numbers” value was 5 fold. Also, the “decrease in the number of GCG+ cells” value (3-day EP treatment, vs untreated control) came to 3 fold.

B5: Endocan: niche-derived secreted factor (R&D), 1 or 5 ng/ml (protein, UniProt Q9NQ30 20-184, looked up)
Endothelial cell-specific …: WSNNYAVDCPQHCDSSECKSSPRCKRTVLDDCGCCRVCAAGRGETCYRTVSGMDGMKCGPGLRCQPSNGEDPFGEEFGICKDCPYGTFGMDCRETCNCQSGICDRGTGKCLKFPFFQYSVTKSSNRFVSLTEHDMASGDGNIVREEVVKENAAGSPVMRKWLNPR
Turning to B5, under “3 days treatment of EPs”, the “number of CHGA+ cells (in words)” value is listed as “significant increase”; the “numbers … over untreated controls (in words)” value is listed as “increased”; the “INS+ cell numbers (in words)” value was “moderate effect”.
